Source: US9090705B2

What was measured:
Aspart precursor [1] = target: Aspart precursor
Aspart precursor [2] = target: Aspart precursor; remark: listed apart in the source

Substance	Yield (%) of Lispro, trypsin and Carboxypeptidase B added together (Lispro precursor)	Yield (%) of Glulisine, trypsin and Carboxypeptidase B added together (Glulisine precursor)	Yield (%) of Aspart, trypsin and Carboxypeptidase B added together (Aspart precursor [1])	conversion of the precursor by trypsin alone (chromatographic profile after 8 hr) (Aspart precursor [2])
Carboxypeptidase B (enzyme)	78%	78%	75%	–
Trypsin (enzyme)	–	–	–	45%
